Where “and” joins values, the source holds several entries; their conditions need not be identical. Identical values can stand only once.
T1: human B7-H4 extracellular domain (human, UniProt Q7Z7D3 29-258)
T1 construct: For SPR it says only human B7-H4 ECD; also called Hu B7-H4 ECD; huB7-H4 ECD
T1 sequence: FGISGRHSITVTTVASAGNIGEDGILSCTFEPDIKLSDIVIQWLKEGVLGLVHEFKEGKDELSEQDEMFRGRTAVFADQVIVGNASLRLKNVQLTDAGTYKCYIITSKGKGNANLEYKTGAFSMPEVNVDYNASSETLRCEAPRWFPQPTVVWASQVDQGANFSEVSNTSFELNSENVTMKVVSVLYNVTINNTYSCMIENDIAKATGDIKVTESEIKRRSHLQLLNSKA

T2: human B7-H4 extracellular domain (human, UniProt Q7Z7D3 29-258)
T2 construct: Soluble ECD used as SPR analyte; also called huB7-H4 ECD; huB7-H4
T2 sequence: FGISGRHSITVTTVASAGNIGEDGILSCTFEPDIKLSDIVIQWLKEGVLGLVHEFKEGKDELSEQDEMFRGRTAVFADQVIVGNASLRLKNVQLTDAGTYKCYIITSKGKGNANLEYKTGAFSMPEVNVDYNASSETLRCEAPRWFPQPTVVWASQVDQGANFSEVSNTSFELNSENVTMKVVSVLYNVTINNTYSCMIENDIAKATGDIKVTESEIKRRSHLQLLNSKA


What follows are binders tested against T1, human B7-H4 extracellular domain (assay: competition ELISA on coated huB7-H4 ECD; competitor biotinylated 0058 (by series, not given)).

IC50 | Binder
7.52 nM and 13.7 nM | B7-H4 antibody 0119 (antibody, human IgG1, kappa, V domains shown) VH: EVQLLESGGGLVQPGGSLRLSCAASGFTFSSYAMSWVRQAPGKGLEWVSAISGGGGSTYYADSVKGRFTISRDNSKNTLYLQMNSLRAEDTAVYYCARDIQWFGESTLFDYWGQGTLVTVSS VL: DIQMTQSPSSLSASVGDRVTITCRASQSIRSWLAWYQQKPGKAPKLLIYKASSLEGGVPSRFSGSGSGTDFTLTISSLQPEDFATYYCQQYNSYSRTFGQGTKVEIKR
6.57 nM and 8 nM | B7-H4 antibody 0414 (antibody, human IgG1, kappa, V domains shown) VH: EVQLLESGGGLVQPGGSLRLSCAASGFTFSSYAMSWVRQAPGKGLEWVSAISGGGGSTYYADSVKGRFTISRDNSKNTLYLQMNSLRAEDTAVYYCARDIQWFGESTLFDYWGQGTLVTVSS VL: DIQMTQSPSSLSASVGDRVTITCRASQSTRSWLAWYQQKPGKAPKLLIYKASSLEGGVPSRFSGSGSGTDFTLTISSLQPEDFATYYCQQYGSYSRTFGQGTKVEIKR

These binders were tested against T2, human B7-H4 extracellular domain (assay: SPR 37 C; IgG1 on anti-hFc chip, ECD analyte;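 also: antibodies captured, then B7-H4 ECD injected at five 3-fold dilutions from 300 nM, 65 s association and 600 s dissociation, fitted to a 1:1 Langmuir model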).

Kd | koff | kon | Binder
2.05 nM | 0.00126 s⁻¹ | 612000 M⁻¹ s⁻¹ | B7-H4 antibody 1116 (antibody, human IgG1, kappa, V domains shown, IgG1 mAb format) VH: EVQLLESGGGLVQPGGSLRLSCAASGFTFSSYAMSWVRQAPGKGLEWVSAISGGGGSTYYADSVKGRFTISRDNSKNTLYLQMNSLRAEDTAVYYCARDIQWYGESTLFDYWGQGTLVTVSS VL: DIQMTQSPSSLSASVGDRVTITCRASQSTRSWLAWHQQKPGKAPKLLIYKASSLESGVPSRFSGSGSGTDFTLTISSLQPEDFATYYCQQYGSYSRTFGQGTKVEIKR
4.31 nM | 0.00108 s⁻¹ | 251000 M⁻¹ s⁻¹ | B7-H4 antibody 1113 (antibody, human IgG1, kappa, V domains shown, IgG1 mAb format) VH: EVQLLESGGGLVQPGGSLRLSCAASGFTFSSYAMSWVRQAPGKGLEWVSAISGGGGSTYYADSVKGRFTISRDNSKNTLYLQMNSLRAEDTAVYYCARDIQWYGESTLFDYWGQGTLVTVSS VL: DIQMTQSPSSLSASVGDRVTITCRASQSTRSWLAWYQQKPGKAPKLLIYKASSLEGGVPSRFSGSGSGTDFTLTISSLQPEDFATYYCQQYGSYSRTFGQGTKVEIKR
2.62 nM | 0.00116 s⁻¹ | 443000 M⁻¹ s⁻¹ | B7-H4 antibody 1115 (antibody, human IgG1, kappa, V domains shown, IgG1 mAb format) VH: EVQLLESGGGLVQPGGSLRLSCAASGFTFSSYAMSWVRQAPGKGLEWVSAISGGGGSTYYADSVKGRFTISRDNSKNTLYLQMNSLRAEDTAVYYCARDIQWYGESTLFDYWGQGTLVTVSS VL: DIQMTQSPSSLSASVGDRVTITCRASQSTRSWLAWYQQKPGKAPKLLIYKASSLESGVPSRFSGSGSGTDFTLTISSLQPEDFATYYCQQYGSYSRTFGQGTKVEIKR
1.54 nM | 0.000949 s⁻¹ | 620000 M⁻¹ s⁻¹ | B7-H4 antibody 1117 (antibody, human IgG1, kappa, V domains shown, IgG1 mAb format) VH: EVQLLESGGGLVQPGGSLRLSCAASGFTFSSYAMSWVRQAPGKGLEWVSAISGGGGSTYYADSVKGRFTISRDNSKNTLYLQMNSLRAEDTAVYYCARDIQWYGESTLFDYWGQGTLVTVSS VL: DIQMTQSPSSLSASVGDRVTITCRASQSTRSWLAWLQQKPGKAPKLLIYKASSLESGVPSRFSGSGSGTDFTLTISSLQPEDFATYYCQQYGSYSRTFGQGTKVEIKR
33.4 nM | 0.00962 s⁻¹ | 288000 M⁻¹ s⁻¹ | B7-H4 antibody 1081 (antibody, human IgG1, kappa, V domains shown, IgG1 mAb format) VH: EVQLVESGGGLVQPGGSLRLSCAVSGGSFSGYYWNWIRQPPGKGLEWIGEIDHQGSTKYNPSLKSRVTISVDTAKNSFYLQMNSLRAEDTAVYYCARGLYNWNVDHWGQGTLVTVSS VL: DIQMTQSPSSLSASVGDRVTITCRASQGIRNDLGWYQQKPGKAPKRLIYAASSLQSGVPSRFSGSGSGTDFTLTISSLQPEDFATYYCLQHNAYPRTFGGGTKVEIKR
22.6 nM | 0.0086 s⁻¹ | 381000 M⁻¹ s⁻¹ | B7-H4 antibody 1083 (antibody, human IgG1, kappa, V domains shown, IgG1 mAb format) VH: EVQLVESGGGLVQPGGSLRLSCAASGGSFSGYYWNWIRQPPGKGLEWIGEINHSGSATYNPSLKSRVTISVDTAKNSFYLQMNSLRAEDTAVYYCARGLYNWNVDHWGQGTLVTVSS VL: DIQMTQSPSSLSASVGDRVTITCRASQGIRNDLGWYQQKPGKAPKRLIYAASSLQSGVPSRFSGSGSGTDFTLTISSLQPEDFATYYCLQHNAYPRTFGGGTKVEIKR

Source: patent US20220017622A1 (Pfizer, published 2022)
